Test results taken from article PMC11077437.

Legend:
[1] = target: T1, human CS1 on CS1pos OPM2 multiple myeloma cells (human (endogenous in OPM2)) (UniProt Q9NQ25)
T1 sequence: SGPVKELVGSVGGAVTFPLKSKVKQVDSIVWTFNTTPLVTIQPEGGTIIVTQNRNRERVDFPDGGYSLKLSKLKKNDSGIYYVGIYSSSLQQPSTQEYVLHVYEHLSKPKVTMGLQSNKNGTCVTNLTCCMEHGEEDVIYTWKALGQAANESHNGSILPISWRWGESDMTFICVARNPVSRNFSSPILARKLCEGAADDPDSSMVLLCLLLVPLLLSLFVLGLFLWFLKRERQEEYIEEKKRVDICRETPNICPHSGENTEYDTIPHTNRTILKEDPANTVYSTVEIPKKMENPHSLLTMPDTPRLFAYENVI

[2] = target: T2, recombinant human CS1 protein (CS1-(his)C) (human) (UniProt Q9NQ25); test: SPR; Biacore T200; recombinant CS1 amine-coupled on a CM5 chip; VHH 100 nM to 3.125 nM in HBS pH 7.4, 25°C; association 180 s, dissociation 300 s; fit '1:1 binding with drift and RI2'; n=1
T2 sequence: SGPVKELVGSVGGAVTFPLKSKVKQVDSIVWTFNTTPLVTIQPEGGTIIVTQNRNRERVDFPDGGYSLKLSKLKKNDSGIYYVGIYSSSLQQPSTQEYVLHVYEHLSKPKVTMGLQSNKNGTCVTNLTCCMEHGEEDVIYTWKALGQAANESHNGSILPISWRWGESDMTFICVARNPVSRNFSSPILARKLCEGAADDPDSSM

[3] = target: T1, human CS1 on CS1pos OPM2 multiple myeloma cells (human (endogenous in OPM2)); test: flow cytometry on cells; purified VHH at 200 nM, 1 h at 4°C, on CS1pos OPM2 cells; detected by mouse anti-His IgG1 mAb and APC anti-mouse IgG1 mAb; ΔMFI against the non-targeting control VHH R3B23 at 200 nM; n=1

B1: VHH-2 (VHH)
VHH: DVQLVESGGGLVQPGDSLRLSCTASGRTFENNFMGWFRQPPGKEREFVAAVGWNTGRGYYTDSVKGRFTISRDSAKNTVYLQMNSLKPEDTAVYSCNAPLQSLDRRLPGPYWGQGTQVTVSS
tumor uptake of the 99mTc-labelled VHH in subcutaneous CS1pos OPM2 tumors in mice, ex vivo at 90 min p.i. (n=3) [1]: 0.48 % IA/g
Kd [2]: 49.7 nM
koff [2]: 0.0318 s⁻¹
kon [2]: 641000 M⁻¹ s⁻¹
ΔMFI [VHH] = 200 nM [3]: 6.09
